These results are taken from patent US20180312587A1 (ADURO BIOTECH HOLDINGS EUROPE B V, published 2018).

The target of assay [1] is T1, hSIRPα expressed on primary human cells (human, UniProt P78324 31-504).
T1 construct: whole, on cells; also called hSIRPα on primary human CD14+ monocytes; on primary human granulocytes
Put plainly: flow cytometry on primary human granulocytes, FITC goat-anti-mouse Ig. The method, then:
To confirm the functionality of hSIRPα.50A in primary immune cells, granulocytes (e.g. effector cells) were isolated from healthy human donor EDTA blood. First, the EDTA blood of each donor was pooled and centrifuged at 300 g for 6 minutes at 20° C. Next, plasma was removed by aspiration, and the remaining blood cells were gently resuspended. Cells were recovered in red blood cell (RBC) lysis buffer (155 mM NH4Cl; 10 mM KHCO3) and incubated for 10 minutes on ice. Next, cells were centrifuged at 300 g for 7 minutes. Supernatants containing lysed RBCs were removed by aspiration, and the remaining blood cells were gently resuspended in RBC lysis buffer and kept on ice for 1 minute. […] The percentage of granulocytes present in the cell suspension was determined by flow cytometry on the FACSCanto II (BD Biosciences) based on high forward scatter (FSC) and side scatter (SSC). Binding of hSIRPα.50A to human granulocytes was assessed by incubating the cells for 30 minutes at 4° C. with hSIRPα.50A antibody (25 μg/mL and dilutions thereof) in PBS/1% BSA containing 10% autologous serum (PBS/1% BSA/10% serum). […] After this labeling procedure, cells were washed two times, resuspended in PBS/1% BSA/10% serum and analysed by flow cytometry on the FACSCanto II (BD Biosciences). Data were processed and analysed with FlowJo V10 software (FlowJo, LLC).
In general terms: Flow cytometry measures light scatter and fluorescence of single cells or particles in a stream.

The next assay concerns the target T2, human SIRPβ1 (human, UniProt O00241 30-398).
T2 construct: also called hSIRPβ1
Description: CELISA, CHO-K1 transfectants. The method, then: (§1) The specificity of monoclonal anti-hSIRPα antibodies (e.g., including the hSIRPα antibodies known in the art, KWAR23 ([…]. Patent CA2939293 A1), 18D5 (Patent WO2017/178653 A2), and various commercially available hSIRPα antibodies) for binding to hSIRPαV1, hSIRPαV1(P74A), and hSIRPβ1 was evaluated by CELISA. Reactivity was confirmed using CHO-K1 cells (ATCC CCL-61) expressing a cDNA encoding the full length open reading frame of hSIRPαV1, hSIRPαV1(P74A), and hSIRPβ1 subcloned into the pCI-neo vector (Promega, Madison, Wis.). CHO-K1.hSIRPαV1, CHO-K1.hSIRPαV1(P74A), and CHO-K1.hSIRPβ1 cells were seeded in culture medium (DMEM-F12 (Gibco) supplemented with 5% New Born Calf Serum (BioWest) and Pen/Strep (Gibco)) in 96-well flat-bottom tissue culture plates and incubated at 37° C., 5% CO₂ and 95% humidity for 24 hours. Subsequently, culture medium was removed and cells were incubated for 1 hour at 37° C., 5% CO₂ and 95% humidity with purified hSIRPα antibodies (used at 10 μg/ml and dilutions thereof). Next, cells were washed with PBS-T and incubated for 1 hour at 37° C., 5% CO₂ and 95% humidity with either goat-anti-mouse IgG-HRP (Southern Biotech), goat-anti-human IgG-HRP (Jackson Immuno Research), or goat-anti-rabbit IgG-HRP (Southern Biotech). Subsequently, cells were washed three times with PBS-T and immunoreactivity against hSIRPαV1, hSIRPαV1(P74A), and hSIRPβ1 was visualized with TMB Stabilized Chromogen (Invitrogen). Reactions were stopped with 0.5 M H₂SO₄ and absorbances were read at 450 and 610 nm.

In a further assay the target is T3, hSIRPαV1(P74A) (human, UniProt P78324 31-504).
T3 construct: also called P74A variant of hSIRPαV1
Put plainly: CELISA, CHO-K1 transfectants. The method, then:
as §1

T2 sequence (O00241 30-398 limits assumed): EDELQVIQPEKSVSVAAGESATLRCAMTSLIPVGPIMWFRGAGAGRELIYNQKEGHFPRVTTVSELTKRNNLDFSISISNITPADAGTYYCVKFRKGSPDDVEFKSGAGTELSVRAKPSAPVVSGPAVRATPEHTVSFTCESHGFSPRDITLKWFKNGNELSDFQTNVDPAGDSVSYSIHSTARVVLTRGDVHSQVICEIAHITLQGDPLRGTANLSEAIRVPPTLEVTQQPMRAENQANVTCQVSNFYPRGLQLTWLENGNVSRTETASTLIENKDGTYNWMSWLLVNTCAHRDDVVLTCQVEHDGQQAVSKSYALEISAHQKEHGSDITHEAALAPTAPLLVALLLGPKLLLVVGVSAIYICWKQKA
T1 sequence (P78324 31-504): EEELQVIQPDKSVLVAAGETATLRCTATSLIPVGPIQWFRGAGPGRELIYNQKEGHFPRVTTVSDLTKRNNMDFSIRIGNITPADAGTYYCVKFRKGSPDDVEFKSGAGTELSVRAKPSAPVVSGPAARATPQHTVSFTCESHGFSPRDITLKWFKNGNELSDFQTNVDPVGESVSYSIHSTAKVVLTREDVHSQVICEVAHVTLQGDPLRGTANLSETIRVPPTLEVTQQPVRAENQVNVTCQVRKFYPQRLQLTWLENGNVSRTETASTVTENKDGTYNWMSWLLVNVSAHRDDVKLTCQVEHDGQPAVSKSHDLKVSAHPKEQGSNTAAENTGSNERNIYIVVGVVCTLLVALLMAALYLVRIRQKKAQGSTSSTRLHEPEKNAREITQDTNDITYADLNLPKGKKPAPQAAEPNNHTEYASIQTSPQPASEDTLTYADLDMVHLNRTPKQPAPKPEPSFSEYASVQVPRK
T3 sequence (P78324 31-504 P74A limits assumed): as the sequence (P78324 31-504) above, with P44A counted along it

B1: hSIRPα.50A (antibody, V domains shown)
VH: QVQLQQSGPELVKPGASVRISCKASGFTFTNYYIHWVKQRPGQGLEWIGWIYPGNVNTKYNEKFKAKATLTADKSSTTAYMQLSSLASEDSAVYFCARPTIIATDFDVWGAGTTVTVSS
VL: DIVMTQSHKFMSTSVGDRVNITCKASQGVGTAVGWYQQKPGQSPRLLIYWASTRHTGVPDRFTGSGSGTDFSLAISNVQSEDLADYFCQQYSTYPFTFGGGTNLEIK
notes: light chain constant domain not tied; also called mouse hSIRPα.50A; hSIRPα.50A.mIgG1
Consider B1, for which the EC50 (read off the curve) (in general, the concentration needed to bring the measured effect to its halfway point) in assay [1] is about 3 nM.

B2: KWAR23 (antibody, V domains shown)
VH: EVQLQQSGAELVKPGASVKLSCTASGFNIKDYYIHWVQQRTEQGLEWIGRIDPEDGETKYAPKFQDKATITADTSSNTAYLHLSSLTSEDTAVYYCARWGAYWGQGTLVTVSS
VL: QIVLTQSPAIMSASPGEKVTLTCSASSSVSSSYLYWYQQKPGSSPKLWIYSTSNLASGVPARFSGSGSGTSYSLTISSMEAEDAASYFCHQWSSYPRTFGAGTKLELK
Consider B2, for which the EC50 (commonly the midpoint of the concentration-response curve) with human SIRPβ1 stood at 0.065 nM; in the assay with hSIRPαV1(P74A) it was 0.077 nM.
